Data: patent publication US6509447B1, “G protein chimeras and methods of screening compounds” (Glaxo Welcome Inc., priority 1997, dated 2003)

Tested on: purinergic nucleotide P2Y2 receptor
Test: CPRG assay, MMY9 cells expressing P2Y2 receptor plus Gα subunit
Assay type: cell-based, human
Set-up: key: weak activation insufficient to carry out curve-fitting was detected; NC: no coupling was detected
Description: Assay for combined FUS1-lacZ and FUS1-HIS3 Expression. In vivo assays of reporter gene induction (CPRG assays) were carried out by suspending cells to 0.02 OD600 in 200 μl SC-glucose (2%) lacking tryptophan, uracil and histidine. This medium was supplemented with agonists, and additionally 10 mM 3-aminotriazole and the β-galactosidase (lacZ) substrate chlorophenolred-β-D-galactopyranoside (CPRG; Boehringer) to a concentration of 0.1 mg/ml. To visualise the colour change reaction, the medium was buffered to pH 7 with 0.1 M sodium phosphate. The assay was conducted in a 96-well microtitre plate format. Plates were incubated for 24 hours without agitation, and absorbance at 570 nm was determined using a Victor microtitre plate reader (Wallac). EC50 values (+/−standard error) were estimated by curve-fitting, using the Robosage software package.
This experiment illustrates that, for certain receptors, the efficiency of coupling to the yeast pheromone response pathway can be enhanced by creating chimeras between yeast and mammalian Gα subunits. […] Agonist-dependent activation of FUS1-lacZ was determined by incubating cells in medium supplemented with the chromogenic, cell-permeant β-galacosidase (lacZ) substrate, chlorophenolred-β-D-galactopyranoside (CPRG; Boehringer Mannheim). […]

purinergic nucleotide P2Y2 receptor, sequence (P41231 1-347 limits assumed): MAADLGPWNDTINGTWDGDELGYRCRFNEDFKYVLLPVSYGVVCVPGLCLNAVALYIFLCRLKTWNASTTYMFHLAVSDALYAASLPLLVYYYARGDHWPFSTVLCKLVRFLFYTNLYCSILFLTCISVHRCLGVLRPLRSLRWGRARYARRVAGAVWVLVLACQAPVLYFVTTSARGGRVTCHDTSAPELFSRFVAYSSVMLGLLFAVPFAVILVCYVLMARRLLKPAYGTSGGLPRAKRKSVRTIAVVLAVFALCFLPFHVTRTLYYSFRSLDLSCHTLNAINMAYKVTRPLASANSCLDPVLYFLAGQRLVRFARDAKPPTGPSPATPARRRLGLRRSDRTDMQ

B1: Gpa1p: endogenous yeast Gα subunit, product of the GPA1 gene (protein, UniProt P08539 2-472, looked up)
Guanine nucleotide-binding …: GCTVSTQTIGDESDPFLQNKRANDVIEQSLQLEKQRDKNEIKLLLLGAGESGKSTVLKQLKLLHQGGFSHQERLQYAQVIWADAIQSMKILIIQARKLGIQLDCDDPINNKDLFACKRILLKAKALDYINASVAGGSDFLNDYVLKYSERYETRRRVQSTGRAKAAFDEDGNISNVKSDTDRDAETVTQNEDADRNNSSRINLQDICKDLNQEGDDQMFVRKTSREIQGQNRRNLIHEDIAKAIKQLWNNDKGIKQCFARSNEFQLEGSAAYYFDNIEKFASPNYVCTDEDILKGRIKTTGITETEFNIGSSKFKVLDAGGQRSERKKWIHCFEGITAVLFVLAMSEYDQMLFEDERVNRMHESIMLFDTLLNSKWFKDTPFILFLNKIDLFEEKVKSMPIRKYFPDYQGRVGDAEAGLKYFEKIFLSLNKTNKPIYVKRTCATDTQTMKFVLSAVTDLIIQQNLKKIGII
coupling class where no EC50 could be fitted: weak
